Reference: article PMC11633198, “Vibrio cholerae CsrA controls ToxR levels by increasing the stability and translation of toxR mRNA”

Key:
CsrA [1] = target: T1, CsrA (Vibrio cholerae, UniProt Q9KUH3 1-65); assay: EMSA; 1 nM RNA; conditions: protein: recombinant; tags: N-terminal 6xHis removed by TEV protease; chain copies: 2; label: 5' biotin; partly folded, stem-loops predicted by mfold
CsrA [2] = target: T1, CsrA; assay: EMSA; 0.1 nM RNA, 0-640 nM CsrA (Fig 3B); 1 nM RNA in Fig 3C; conditions: protein: recombinant; tags: N-terminal 6xHis removed by TEV protease; chain copies: 2; label: 3' biotin; two adjacent hairpins (mfold)
CsrA [3] = target: T1, CsrA; assay: EMSA; 1 nM RNA, 640 nM CsrA; conditions: protein: recombinant; tags: N-terminal 6xHis removed by TEV protease; chain copies: 2; label: 3' biotin; two adjacent hairpins (mfold)
CsrA [4] = target: T1, CsrA; assay: EMSA; 1 nM RNA, 640 nM CsrA; also no binding when mixed with CsrB-right; conditions: protein: recombinant; tags: N-terminal 6xHis removed by TEV protease; chain copies: 2; label: 3' biotin; hairpin (mfold)
CsrA [5] = target: T1, CsrA; assay: EMSA; 1 nM RNA, 640 nM CsrA; also no binding when mixed with CsrB-left; conditions: protein: recombinant; tags: N-terminal 6xHis removed by TEV protease; chain copies: 2; label: 3' biotin; hairpin (mfold)

T1 sequence (Q9KUH3 whole entry): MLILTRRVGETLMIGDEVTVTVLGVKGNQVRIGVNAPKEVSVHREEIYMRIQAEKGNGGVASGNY

B1: toxR 5'UTR (ssRNA)
RNA: GCAUUUUUAUCAAAGAAGAUAAAAAAACCAGUAAAGUCUGAGUGUUGGGACAGGGAGAUACUGGGACAUUAGAUGUUCGGAUUAGGACACAACUCAAAAGAGAUAUCGAUG
binding result (CsrA [1]): binds

UUAGAUGCAGGGAGCACCUUUUAGUAGCUGGAAUGCUGCGA (structured_RNA) [CsrB oligo]
binding result (CsrA [2]): binds

UUAGAUGCAUAUAGCACCUUUUAGUAGCUAUAAUGCUGCGA (structured_RNA) [CsrB-mut (oligo-mut)]
binding result (CsrA [3]): no binding

UUAGAUGCAUAUAGCACCUUUUAGUAGCUGGAAUGCUGCGA (structured_RNA) [mut-left]
binding result (CsrA [3]): no binding

UUAGAUGCAGGGAGCACCUUU (structured_RNA) [CsrB-left]
binding result (CsrA [4]): no binding

UUUUAGUAGCUGGAAUGCUGCGA (structured_RNA) [CsrB-right]
binding result (CsrA [5]): no binding
